From publication PMC10992996

Target: Human canonical CRB2 (Crumbs homolog 2), Q5IJ48-1
Experiment: co-IP (FLAG-IP) and Western blot quantification
Details: chain shown with the change; co-transfected in HEK293T cells; three biological replicates; parent: est. 1.0; read off a plot

Human canonical CRB2 (Crumbs homolog 2), Q5IJ48-1, sequence (Q5IJ48 29-1285): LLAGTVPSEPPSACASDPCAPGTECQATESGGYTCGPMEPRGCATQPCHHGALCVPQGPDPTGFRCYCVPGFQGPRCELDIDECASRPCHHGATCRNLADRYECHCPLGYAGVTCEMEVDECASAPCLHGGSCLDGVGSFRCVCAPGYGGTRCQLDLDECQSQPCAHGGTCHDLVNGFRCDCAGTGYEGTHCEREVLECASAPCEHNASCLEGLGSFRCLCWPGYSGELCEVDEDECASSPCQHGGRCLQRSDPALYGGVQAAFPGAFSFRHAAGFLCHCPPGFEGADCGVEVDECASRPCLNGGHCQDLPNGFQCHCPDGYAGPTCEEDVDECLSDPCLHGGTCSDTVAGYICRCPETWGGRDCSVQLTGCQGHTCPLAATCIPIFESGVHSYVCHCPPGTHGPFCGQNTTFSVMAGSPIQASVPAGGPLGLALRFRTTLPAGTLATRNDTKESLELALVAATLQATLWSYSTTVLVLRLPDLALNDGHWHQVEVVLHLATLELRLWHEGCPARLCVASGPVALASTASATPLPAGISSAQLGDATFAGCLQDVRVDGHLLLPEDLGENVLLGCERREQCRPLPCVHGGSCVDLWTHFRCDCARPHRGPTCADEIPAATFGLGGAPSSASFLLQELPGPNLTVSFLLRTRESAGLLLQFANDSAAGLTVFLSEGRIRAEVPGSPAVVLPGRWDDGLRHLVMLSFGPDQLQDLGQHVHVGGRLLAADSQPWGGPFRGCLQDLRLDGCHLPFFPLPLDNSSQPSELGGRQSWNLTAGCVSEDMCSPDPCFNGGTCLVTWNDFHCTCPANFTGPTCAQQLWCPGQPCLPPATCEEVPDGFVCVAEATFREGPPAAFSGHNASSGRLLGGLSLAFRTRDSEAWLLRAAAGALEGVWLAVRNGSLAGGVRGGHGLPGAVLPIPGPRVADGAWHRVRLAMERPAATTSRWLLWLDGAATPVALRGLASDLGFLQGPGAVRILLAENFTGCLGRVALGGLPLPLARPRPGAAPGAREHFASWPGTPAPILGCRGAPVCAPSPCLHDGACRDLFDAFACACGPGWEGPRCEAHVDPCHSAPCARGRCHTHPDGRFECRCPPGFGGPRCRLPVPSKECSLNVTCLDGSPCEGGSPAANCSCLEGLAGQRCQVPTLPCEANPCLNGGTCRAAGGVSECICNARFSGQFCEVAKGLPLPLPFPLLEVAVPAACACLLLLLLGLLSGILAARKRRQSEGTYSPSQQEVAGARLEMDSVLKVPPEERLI

ratio to parent | Binder
1.1 | Human canonical CRB1 (Crumbs homolog 1), P82279 p.C681Y (protein) FCNKNNTRCLSNSCQNNSTCKDFSKDNDCSCSDTANNLDKDCDNMKDPCFSNPCQGSATCVNTPGERSFLCKCPPGYSGTICETTIGSCGKNSCQHGGICHQDPIYPVCICPAGYAGRFCEIDHDECASSPCQNGAVCQDGIDGYSCFCVPGYQGRHCDLEVDECASDPCKNEATCLNEIGRYTCICPHNYSGVNCELEIDECWSQPCLNGATCQDALGAYFCDCAPGFLGDHCELNTDECASQPCLHGGLCVDGENRYSCNCTGSGFTGTHCETLMPLCWSKPCHNNATCEDSVDNYTCHCWPGYTGAQCEIDLNECNSNPCQSNGECVELSSEKQYGRITGLPSSFSYHEASGYVCICQPGFTGIHCEEDVNECSSNPCQNGGTCENLPGNYTCHCPFDNLSRTFYGGRDCSDILLGCTHQQCLNNGTCIPHFQDGQHGFSCLCPSGYTGSLCEIATTLSFEGDGFLWVKSGSVTTKGSVCNIALRFQTVQPMALLLFRSNRDVFVKLELLSGYIHLSIQVNNQSKVLLFISHNTSDGEWHFVEVIFAEAVTLTLIDDSCKEKCIAKAPTPLESDQSICAFQNSFLGGLPVGMTSNGVALLNFYNMPSTPSFVGCLQDIKIDWNHITLENISSGSSLNVKAGCVRKDWCESQPYQSRGRCINLWLSYQCDCHRPYEGPNCLREYVAGRFGQDDSTGYVIFTLDESYGDTISLSMFVRTLQPSGLLLALENSTYQYIRVWLERGRLAMLTPNSPKLVVKFVLNDGNVHLISLKIKPYKIELYQSSQNLGFISASTWKIEKGDVIYIGGLPDKQETELNGGFFKGCIQDVRLNNQNLEFFPNPTNNASLNPVLVNVTQGCAGDNSCKSNPCHNGGVCHSRWDDFSCSCPALTSGKACEEVQWCGFSPCPHGAQCQPVLQGFECIANAVFNGQSGQILFRSNGNITRELTNITFGFRTRDANVIILHAEKEPEFLNISIQDSRLFFQLQSGNSFYMLSLTSLQSVNDGTWHEVTLSMTDPLSQTSRWQMEVDNETPFVTSTIATGSLNFLKDNTDIYVGDRAIDNIKGLQGCLSTIEIGGIYLSYFENVHGFINKPQEEQFLKISTNSVVTGCLQLNVCNSNPCLHGGNCEDIYSSYHCSCPLGWSGKHCELNIDECFSNPCIHGNCSDRVAAYHCTCEPGYTGVNCEVDIDNCQSHQCANGATCISHTNGYSCLCFGNFTGKFCRQSRLPSTVCGNEKTNLTCYNGGNCTEFQTELKCMCRPGFTGEWCEKDIDECASDPCVNGGLCQDLLNKFQCLCDVAFAGERCEVDLADDLISDIFTTIGSVTVALLLILLLAIVASVVTSNKRATQGTYSPSRQEKEGSRVEMWNLMPPPAMERLI
1 | Human canonical CRB1 (Crumbs homolog 1), P82279 p.C1321S (protein) FCNKNNTRCLSNSCQNNSTCKDFSKDNDCSCSDTANNLDKDCDNMKDPCFSNPCQGSATCVNTPGERSFLCKCPPGYSGTICETTIGSCGKNSCQHGGICHQDPIYPVCICPAGYAGRFCEIDHDECASSPCQNGAVCQDGIDGYSCFCVPGYQGRHCDLEVDECASDPCKNEATCLNEIGRYTCICPHNYSGVNCELEIDECWSQPCLNGATCQDALGAYFCDCAPGFLGDHCELNTDECASQPCLHGGLCVDGENRYSCNCTGSGFTGTHCETLMPLCWSKPCHNNATCEDSVDNYTCHCWPGYTGAQCEIDLNECNSNPCQSNGECVELSSEKQYGRITGLPSSFSYHEASGYVCICQPGFTGIHCEEDVNECSSNPCQNGGTCENLPGNYTCHCPFDNLSRTFYGGRDCSDILLGCTHQQCLNNGTCIPHFQDGQHGFSCLCPSGYTGSLCEIATTLSFEGDGFLWVKSGSVTTKGSVCNIALRFQTVQPMALLLFRSNRDVFVKLELLSGYIHLSIQVNNQSKVLLFISHNTSDGEWHFVEVIFAEAVTLTLIDDSCKEKCIAKAPTPLESDQSICAFQNSFLGGLPVGMTSNGVALLNFYNMPSTPSFVGCLQDIKIDWNHITLENISSGSSLNVKAGCVRKDWCESQPCQSRGRCINLWLSYQCDCHRPYEGPNCLREYVAGRFGQDDSTGYVIFTLDESYGDTISLSMFVRTLQPSGLLLALENSTYQYIRVWLERGRLAMLTPNSPKLVVKFVLNDGNVHLISLKIKPYKIELYQSSQNLGFISASTWKIEKGDVIYIGGLPDKQETELNGGFFKGCIQDVRLNNQNLEFFPNPTNNASLNPVLVNVTQGCAGDNSCKSNPCHNGGVCHSRWDDFSCSCPALTSGKACEEVQWCGFSPCPHGAQCQPVLQGFECIANAVFNGQSGQILFRSNGNITRELTNITFGFRTRDANVIILHAEKEPEFLNISIQDSRLFFQLQSGNSFYMLSLTSLQSVNDGTWHEVTLSMTDPLSQTSRWQMEVDNETPFVTSTIATGSLNFLKDNTDIYVGDRAIDNIKGLQGCLSTIEIGGIYLSYFENVHGFINKPQEEQFLKISTNSVVTGCLQLNVCNSNPCLHGGNCEDIYSSYHCSCPLGWSGKHCELNIDECFSNPCIHGNCSDRVAAYHCTCEPGYTGVNCEVDIDNCQSHQCANGATCISHTNGYSCLCFGNFTGKFCRQSRLPSTVCGNEKTNLTCYNGGNCTEFQTELKCMCRPGFTGEWCEKDIDECASDPCVNGGLCQDLLNKFQSLCDVAFAGERCEVDLADDLISDIFTTIGSVTVALLLILLLAIVASVVTSNKRATQGTYSPSRQEKEGSRVEMWNLMPPPAMERLI
1 | Human canonical CRB1 (Crumbs homolog 1), P82279 p.C948Y (protein) FCNKNNTRCLSNSCQNNSTCKDFSKDNDCSCSDTANNLDKDCDNMKDPCFSNPCQGSATCVNTPGERSFLCKCPPGYSGTICETTIGSCGKNSCQHGGICHQDPIYPVCICPAGYAGRFCEIDHDECASSPCQNGAVCQDGIDGYSCFCVPGYQGRHCDLEVDECASDPCKNEATCLNEIGRYTCICPHNYSGVNCELEIDECWSQPCLNGATCQDALGAYFCDCAPGFLGDHCELNTDECASQPCLHGGLCVDGENRYSCNCTGSGFTGTHCETLMPLCWSKPCHNNATCEDSVDNYTCHCWPGYTGAQCEIDLNECNSNPCQSNGECVELSSEKQYGRITGLPSSFSYHEASGYVCICQPGFTGIHCEEDVNECSSNPCQNGGTCENLPGNYTCHCPFDNLSRTFYGGRDCSDILLGCTHQQCLNNGTCIPHFQDGQHGFSCLCPSGYTGSLCEIATTLSFEGDGFLWVKSGSVTTKGSVCNIALRFQTVQPMALLLFRSNRDVFVKLELLSGYIHLSIQVNNQSKVLLFISHNTSDGEWHFVEVIFAEAVTLTLIDDSCKEKCIAKAPTPLESDQSICAFQNSFLGGLPVGMTSNGVALLNFYNMPSTPSFVGCLQDIKIDWNHITLENISSGSSLNVKAGCVRKDWCESQPCQSRGRCINLWLSYQCDCHRPYEGPNCLREYVAGRFGQDDSTGYVIFTLDESYGDTISLSMFVRTLQPSGLLLALENSTYQYIRVWLERGRLAMLTPNSPKLVVKFVLNDGNVHLISLKIKPYKIELYQSSQNLGFISASTWKIEKGDVIYIGGLPDKQETELNGGFFKGCIQDVRLNNQNLEFFPNPTNNASLNPVLVNVTQGCAGDNSCKSNPCHNGGVCHSRWDDFSCSCPALTSGKACEEVQWCGFSPCPHGAQCQPVLQGFEYIANAVFNGQSGQILFRSNGNITRELTNITFGFRTRDANVIILHAEKEPEFLNISIQDSRLFFQLQSGNSFYMLSLTSLQSVNDGTWHEVTLSMTDPLSQTSRWQMEVDNETPFVTSTIATGSLNFLKDNTDIYVGDRAIDNIKGLQGCLSTIEIGGIYLSYFENVHGFINKPQEEQFLKISTNSVVTGCLQLNVCNSNPCLHGGNCEDIYSSYHCSCPLGWSGKHCELNIDECFSNPCIHGNCSDRVAAYHCTCEPGYTGVNCEVDIDNCQSHQCANGATCISHTNGYSCLCFGNFTGKFCRQSRLPSTVCGNEKTNLTCYNGGNCTEFQTELKCMCRPGFTGEWCEKDIDECASDPCVNGGLCQDLLNKFQCLCDVAFAGERCEVDLADDLISDIFTTIGSVTVALLLILLLAIVASVVTSNKRATQGTYSPSRQEKEGSRVEMWNLMPPPAMERLI
